Measured values: US20210214461A1
Numbering of substitutions follows the chain as printed. Values belong to the binder of their own block, whether it stands above or below them.

Tests used:
[1] = biological target: pre-existing anti-scFv903 antibodies in human serum H135 (human); assay: competition ADA bridging ELISA, 100 mcg/ml competitor
[2] = biological target: pre-existing anti-scFv903 antibodies in human serum H54 (human); assay: as above
[3] = biological target: pre-existing anti-scFv903 antibodies in human serum H116 (human); assay: as above
[4] = biological target: pre-existing anti-scFv903 antibodies in human serum H55 (human); assay: as above
[5] = biological target: pre-existing anti-scFv903 antibodies in human serum H115 (human); assay: as above
[6] = biological target: pre-existing anti-scFv903 antibodies in human serum H46 (human); assay: as above
[7] = biological target: pre-existing anti-scFv903 antibodies in human serum H60 (human); assay: as above
[8] = biological target: pre-existing anti-scFv903 antibodies in human serum H86 (human); assay: as above
[9] = biological target: pre-existing anti-scFv903 antibodies in human serum H125 (human); assay: as above
[10] = biological target: pre-existing anti-scFv903 antibodies in human serum H50 (human); assay: as above
[11] = biological target: pre-existing anti-scFv903 antibodies in human serum H14 (human); assay: as above
[12] = biological target: pre-existing anti-scFv903 antibodies in human serum H8 (human); assay: as above
[13] = biological target: pre-existing anti-scFv903 antibodies in human serum H29 (human); assay: as above
[14] = biological target: pre-existing anti-scFv903 antibodies in human serum H66 (human); assay: as above
[15] = biological target: pre-existing anti-scFv903 antibodies in human serum H96 (human); assay: as above
[16] = biological target: pre-existing anti-scFv903 antibodies in human serum H69 (human); assay: as above
[17] = biological target: pre-existing anti-scFv903 antibodies in human serum H40 (human); assay: as above
[18] = biological target: pre-existing anti-scFv903 antibodies in human serum H26 (human); assay: as above
[19] = biological target: pre-existing anti-scFv903 antibodies in human serum H21 (human); assay: as above
[20] = biological target: pre-existing anti-scFv903 antibodies in human serum H49 (human); assay: as above
[21] = biological target: pre-existing anti-scFv903 antibodies in human serum H19 (human); assay: as above
[22] = biological target: pre-existing anti-scFv903 antibodies in human serum H3 (human); assay: as above
[23] = biological target: pre-existing anti-scFv903 antibodies in human serum H105 (human); assay: as above
[24] = biological target: pre-existing anti-scFv903 antibodies in human serum H80 (human); assay: as above
[25] = biological target: pre-existing anti-scFv903 antibodies in human serum H76 (human); assay: as above
[26] = biological target: pre-existing anti-scFv903 antibodies in human serum H59 (human); assay: as above
[27] = biological target: pre-existing anti-scFv903 antibodies in human serum H56 (human); assay: as above
[28] = biological target: pre-existing anti-scFv903 antibodies in human serum H20 (human); assay: as above
[29] = biological target: pre-existing anti-scFv903 antibodies in human serum H81 (human); assay: as above
[30] = biological target: pre-existing anti-scFv903 antibodies in human serum H15 (human); assay: as above
[31] = biological target: pre-existing anti-scFv903 antibodies in human serum H79 (human); assay: as above
[32] = biological target: pre-existing anti-scFv903 antibodies in human serum H53 (human); assay: as above
[33] = biological target: pre-existing anti-scFv903 antibodies in human serum H63 (human); assay: as above
[34] = biological target: pre-existing anti-scFv903 antibodies in human serum H135 (human); assay: competition ADA bridging ELISA
[35] = biological target: pre-existing anti-scFv903 antibodies in human serum H54 (human); assay: competition ADA bridging ELISA
[36] = biological target: pre-existing anti-scFv903 antibodies in human serum H46 (human); assay: competition ADA bridging ELISA
[37] = biological target: pre-existing anti-scFv903 antibodies in human serum H66 (human); assay: competition ADA bridging ELISA
[38] = biological target: pre-existing anti-scFv903 antibodies in human serum H96 (human); assay: competition ADA bridging ELISA
[39] = biological target: pre-existing anti-scFv903 antibodies in human serum H49 (human); assay: competition ADA bridging ELISA
[40] = biological target: pre-existing anti-scFv903 antibodies in human serum H80 (human); assay: competition ADA bridging ELISA
[41] = biological target: pre-existing anti-scFv903 antibodies in human serum H59 (human); assay: competition ADA bridging ELISA
[42] = biological target: pre-existing anti-scFv903 antibodies in human serum H64 (human); assay: competition ADA bridging ELISA, 100 mcg/ml competitor

% reduction in OD [1]: -92.5%
signal change in OD (%) [2]: -93.1%
% reduction in OD [3]: -97.8%
% signal change in OD (negative = reduction) [4]: -89.4%
% reduction in OD [5]: -94.7%
% change in OD signal [6]: -79.8%
signal change in competition ELISA [7]: -95.6%
% reduction in OD [8]: -86.2%
% reduction in OD [9]: -97.9%
signal change in competition ELISA (% change in OD) [10]: -88.7%
% change in OD signal [11]: -96.6%
% reduction in OD [12]: -87.3%
% change in OD signal [13]: -79.4%
% change in OD [14]: -97.2%
% reduction in OD [15]: -80.3%
signal change in competition ELISA (% change in OD) [16]: -92.2%
% signal change in OD (negative = reduction) [17]: -95.4%
% change in OD (signal change) [18]: -92%
% signal change in competition ELISA [19]: -85.4%
% change in OD in competition ELISA [20]: -82.7%
signal change in competition ELISA (% change in OD) [21]: -90.3%
% reduction in OD [22]: -79.9%
% reduction in OD [23]: -97.2%
% reduction in OD [24]: -87%
% reduction in OD [25]: -97%
signal change in competition ELISA (% change in OD) [26]: -97%
% change in OD [27]: -24.4%
signal change in competition ELISA [28]: -91.9%
% reduction in OD [29]: -94.7%
% change in OD (signal change in competition ELISA) [30]: -91.1%
% reduction in OD [31]: -97.1%
signal change in competition ELISA (%) [32]: -32.4%
% change in OD (signal change in competition ELISA) [33]: -96.8%
signal change in competition ELISA (% reduction in OD) [34]: -93%
signal change in competition ELISA (% reduction in OD) [35]: -93%
signal change in competition ELISA (% reduction in OD) [36]: -80%
signal change in competition ELISA (% reduction in OD) [37]: -97%
signal change in competition ELISA (% reduction in OD) [38]: -80%
signal change in competition ELISA (% reduction in OD) [39]: -83%
signal change in competition ELISA (% reduction in OD) [40]: -87%
signal change in competition ELISA (% reduction in OD) [41]: -97%
B1: scFv 903 (scFv)
scFv: EIVMTQSPSTLSASVGDRVIITCQASEIIHSWLAWYQQKPGKAPKLLIYLASTLASGVPSRFSGSGSGAEFTLTISSLQPDDFATYYCQNVYLASTNGANFGQGTKLTVLGGGGGSGGGGSGGGGSGGGGSEVQLVESGGGLVQPGGSLRLSCTASGFSLTDYYYMTWVRQAPGKGLEWVGFIDPDDDPYYATWAKGRFTISRDTSKNTVYLQMNSLRAEDTAVYYCAGGDHNSGWGLDIWGQGTLVTVSS

% reduction in OD [1]: -74.7%
% reduction in OD [2]: -69.4%
% reduction in OD [3]: -33.2%
% reduction in OD [4]: -14.7%
% reduction in OD [5]: -31.4%
% reduction in OD [6]: -40.1%
% reduction in OD [7]: -1.2%
% reduction in OD [42]: -13.7%
% reduction in OD [8]: -67.9%
% reduction in OD [9]: 2.7%
% reduction in OD [10]: -72.8%
% reduction in OD [12]: -88.6%
% reduction in OD [13]: -21.9%
% reduction in OD [15]: -78%
% reduction in OD [16]: -6.2%
% reduction in OD [17]: -1.7%
% reduction in OD [18]: 0.1%
% reduction in OD [19]: -80.5%
% reduction in OD [20]: -8.8%
% reduction in OD [21]: -63.7%
% reduction in OD [22]: -1.7%
% reduction in OD [23]: 7.4%
% reduction in OD [24]: -55.1%
% reduction in OD [25]: -36.4%
% reduction in OD [26]: -67.3%
% reduction in OD [27]: -23.8%
% reduction in OD [28]: -23.5%
% reduction in OD [29]: -8.8%
% reduction in OD [31]: -74.1%
% reduction in OD [32]: -30.9%
% reduction in OD [33]: -35.9%
signal change in competition ELISA (% reduction in OD) [34]: -75%
signal change in competition ELISA (% reduction in OD) [35]: -69%
signal change in competition ELISA (% reduction in OD) [36]: -40%
signal change in competition ELISA (% reduction in OD) [38]: -78%
signal change in competition ELISA (% reduction in OD) [39]: -9%
signal change in competition ELISA (% reduction in OD) [40]: -55%
signal change in competition ELISA (% reduction in OD) [41]: -67%
B2: scFv 961 (scFv)
scFv: B1 scFv with L142S, V224T, L246T

% reduction in OD [1]: -23.1%
% reduction in OD [2]: -61.3%
% reduction in OD [3]: -43.4%
% reduction in OD [4]: -71.9%
% reduction in OD [5]: -60.4%
% reduction in OD [6]: -66.7%
% reduction in OD [7]: -10.8%
% reduction in OD [42]: -55.5%
% reduction in OD [9]: -55.5%
% reduction in OD [10]: -31.1%
% reduction in OD [11]: -3.6%
% reduction in OD [12]: -23.1%
% reduction in OD [13]: -51.4%
% reduction in OD [14]: -2.6%
% reduction in OD [15]: -29%
% reduction in OD [16]: -87.6%
% reduction in OD [17]: 3.5%
% reduction in OD [18]: -79.9%
% reduction in OD [19]: -3.4%
% reduction in OD [20]: -26.1%
% reduction in OD [21]: -73.5%
% reduction in OD [22]: -58.8%
% reduction in OD [23]: 2.4%
% reduction in OD [24]: -50.9%
% reduction in OD [25]: -65.7%
% reduction in OD [26]: -93.7%
% reduction in OD [27]: -4.8%
% reduction in OD [28]: -18.8%
% reduction in OD [29]: -18.1%
% reduction in OD [30]: -69.5%
% reduction in OD [31]: -40.5%
% reduction in OD [32]: -18.4%
% reduction in OD [33]: -80.5%
signal change in competition ELISA (% reduction in OD) [34]: -23%
signal change in competition ELISA (% reduction in OD) [35]: -61%
signal change in competition ELISA (% reduction in OD) [36]: -67%
signal change in competition ELISA (% reduction in OD) [37]: -3%
signal change in competition ELISA (% reduction in OD) [38]: -29%
signal change in competition ELISA (% reduction in OD) [39]: -26%
signal change in competition ELISA (% reduction in OD) [40]: -51%
signal change in competition ELISA (% reduction in OD) [41]: -94%
B3: scFv105 (scFv)
scFv: DIVMTQSPSSLSASVGDRVTLTCTASQSVSNDVVWYQQRPGKAPKLLIYSAFNRYTGVPSRFSGRGYGTDFTLTISSLQPEDVAVYYCQQDYNSPRTFGQGTKLEVKRGGGGSGGGGSGGGGSSGGGSQVQLVQSGAEVKKPGASVKVSCTASGYTFTHYGMNWVRQAPGKGLEWMGWINTYTGEPTYADKFKDRFTFSLETSASTVYMELTSLTSDDTAVYYCARERGDAMDYWGQGTLVTVSS
